Numbering of substitutions follows the chain as printed.
B1: PR303199 (antibody, human IgG1, V domains shown)
VH: EVQLVESGGGLVKPGGSLRLSCAASGFTFSDYYMSWIRQAPGKGLEWIAYISSSGSTIYYADSVKGRFTISRDNAKNSLYLQMNSLRAEDTAIYYCAREYYGSENYDHFDYWGQGTLVTVSS
notes: HCAb (heavy chain-only, human IgG1 Fc), no light chain
B2: PR303155 (antibody, human IgG1, V domains shown)
VH: EVQLVESGGGLVKPGGSLRLSCAASGFTLSDYYMSWIRQAPGKGLEWISYISSNGSTIYYADSVKGRFTISRDNARNSLYLQMNSLRAEDTALYYCARDVSSGWYEDFDYWGQGTLVTVSS
notes: as for B1
B3: PR303145 (antibody, human IgG1, V domains shown)
VH: QVQLVESGGGLVKPGGSLRISCAASGFTFSNYNMSWIRQAPGKGVEWVSHISGSGRTIYYAESVKGRFTISRDNAKNSLYLQMNSLRAEDTAMYYCARDLSSGWYEDFDYWGQGTLVTVSS
notes: as for B1
B4: PR005339 (antibody, human IgG1, V domains shown)
VH: B2 VH with R19K, L29F, L45V, S53N, Y59H, R76K, L93V, V100F, S101N, S102N
notes: as for B1
B5: PR005342 (antibody, human IgG1, V domains shown)
VH: EVQLVESGGGLVKPGGSLRLSCAASGFNFSDYYMSWIRQAPGKGLEWISYISNSSSTIYYADSVKGRFTISRDNAKNSLYLQMSRLRAEDTAMYYCARDTTNGWYEDFDYWGQGTLVTVSS
notes: as for B1
B6: PR005350 (antibody, human IgG1, V domains shown)
VH: EVQLVESGGGLVKPGGSLRLSCAASGFTLSDSQMSWIRQAPGKGVEWVSYISSSGNTIYYGDSVKGRFTISRDNAKNSLFLQMNSLRAEDTAVYYCARVPPSSSNWYEDFDIWGQGTLVTVSS
notes: as for B1
B7: PR005346 (antibody, human IgG1, V domains shown)
VH: EVQLVESGGGLVKPGGSLRLSCAASGFTLSDYYMSWIRQAPGKGLEWVSNISKNGFTIYYAESVKGRFTVSRDNAKNSLYLQMNSLRAEDTAIYYCARDSSGWYSEFDYWGQGTLVTVSS
notes: as for B1
B8: PR005343 (antibody, human IgG1, V domains shown)
VH: EVQLVESGGGLVKPGGSLRLSCVASGFTFSDYYMSWIRQAPGKGMEWISYISSSGSTKNYANSVKGRFTISRDNAKNSLYLQMNSLRAEDTAAYYCARVPPYNASWYEDFDYWGQGTLVTVSS
notes: as for B1
B9: PR005347 (antibody, human IgG1, V domains shown)
VH: B8 VH with A24T, S53T, S54T, N77S, Y102S
notes: as for B1
B10: PR005341 (antibody, human IgG1, V domains shown)
VH: EVQLVESGGGLVKPGGSLRLSCVASGFTFSDYYMSWIRQAPGKGLEWISYISSSGSSIYYAESVKGRFTISRDNAKNSLYLQMNRLRAEDTALYYCARTPPSSDNWYEDFDYWGQGALVTVSS
notes: as for B1
B11: PR005337 (antibody, human IgG1, V domains shown)
VH: EVQLVESGGGLVKPGGSLRLSCAASGFIFSDYYMSWIRQAPGKGLEWVSYISSSGSTIHYADSVKGRFTVSRDNAKNSLYLQMNSLRTEDTAVYYCARDPPTSNSDWVSLHFDHWGQGTLVTVSS
notes: as for B1
B12: PR005345 (antibody, human IgG1, V domains shown)
VH: EVQLVESGGGLVKPGGSLRLSCAASGFTFSDYYMSWIRQAPGKGLEWIAYISSSGSTIHYSDSVKGRFTISRDNAKNSLYLQMNSLRAEDTAVYYCARDTPSSSSDWVSLQFDYWGQGTPVTVSS
notes: as for B1
B13: PR005348 (antibody, human IgG1, V domains shown)
VH: B11 VH with I28T, A40T, S53R, I58K, H59Y, V70I, T88A, P100A, T102S
notes: as for B1
B14: PR007421 (antibody, V domains shown)
VH: EVQLVESGGGLVKPGGSLRLSCAASGFTFSDFYMSWIRQAPGKGLEWISYIDSSGRPLAYADSVKGRFTISRDNAKNSLYLQMNSLRAEDTAIYYCARDMPSSSSDWVSLQFDYWGQGTLVTVSS
notes: bivalent form (HCAb) variant of PR005340, no light chain

Target: T1, human ROR1 on cells (HEK293T-hROR1, PANC-1, A549) (human, UniProt Q01973 30-937)
T1 construct: whole, on cells; one molecule for the three cell lines; also called huROR1; cell surface ROR1
T1 sequence (Q01973 30-937): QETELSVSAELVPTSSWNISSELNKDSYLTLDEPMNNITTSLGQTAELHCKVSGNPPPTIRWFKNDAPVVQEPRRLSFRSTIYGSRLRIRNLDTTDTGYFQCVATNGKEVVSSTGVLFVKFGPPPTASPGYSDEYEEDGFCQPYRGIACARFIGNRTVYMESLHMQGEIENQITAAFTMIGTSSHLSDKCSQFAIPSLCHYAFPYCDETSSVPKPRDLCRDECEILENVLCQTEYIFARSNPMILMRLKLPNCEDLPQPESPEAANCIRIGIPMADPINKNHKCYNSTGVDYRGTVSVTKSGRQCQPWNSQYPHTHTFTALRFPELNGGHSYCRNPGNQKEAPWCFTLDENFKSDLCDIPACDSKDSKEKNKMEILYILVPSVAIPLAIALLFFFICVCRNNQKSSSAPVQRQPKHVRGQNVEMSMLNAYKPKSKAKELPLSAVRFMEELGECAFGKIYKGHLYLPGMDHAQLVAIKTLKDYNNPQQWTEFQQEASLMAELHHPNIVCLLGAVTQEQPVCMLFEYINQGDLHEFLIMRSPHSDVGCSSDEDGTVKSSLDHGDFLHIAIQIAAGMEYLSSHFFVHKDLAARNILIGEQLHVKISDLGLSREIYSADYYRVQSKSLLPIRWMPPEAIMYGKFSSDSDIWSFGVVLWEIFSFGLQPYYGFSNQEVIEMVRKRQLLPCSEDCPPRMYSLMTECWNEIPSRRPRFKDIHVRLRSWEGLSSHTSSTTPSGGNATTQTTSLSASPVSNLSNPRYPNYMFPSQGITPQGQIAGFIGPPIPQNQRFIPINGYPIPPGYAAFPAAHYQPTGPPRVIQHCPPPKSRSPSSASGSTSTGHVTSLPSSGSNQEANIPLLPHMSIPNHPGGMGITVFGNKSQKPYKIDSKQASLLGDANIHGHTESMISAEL
Test: flow cytometry, A549 cells
Description: (§1) In brief, anti-ROR1 antibodies were serially diluted in staining buffer (PBS containing 2% FBS). Antibody solution was incubated with 1×10⁵ cells at 4° C. for 1 hour. […] After 1-hour incubation at 4° C., cells were washed twice with staining buffer and subjected to flow cytometry. PR000374 (Bench marker 1) and non-relevant IgG isotype control (Crownbio) were used as positive and negative controls, respectively.

Row | EC50 | MAX(MFI) | Binder
1 | 6.79 µg/mL | 408000 MFI | B1
2 | 1.32 µg/mL | 791000 MFI | B2
3 | 0.93 µg/mL | 875000 MFI | B3

Target: T1, human ROR1 on cells (HEK293T-hROR1, …)
Test: flow cytometry, PANC-1 cells
Description: as §1

Row | EC50 | MAX(MFI) | Max | Binder
4 | 11.3 µg/mL | 462000 MFI |  | B1
5 |  |  | 16200 | B4
6 | 1.07 µg/mL | 552000 MFI |  | B2
7 |  |  | 16700 | B5
8 |  |  | 4250 | B6
9 |  |  | 10200 | B7
10 |  |  | 18300 | B8
11 |  |  | 16400 | B9
12 |  |  | 16500 | B10
13 |  |  | 14700 | B11
14 | 0.654 µg/mL | 653000 MFI |  | B3
15 |  |  | 9710 | B12
16 |  |  | 10200 | B13

Target: T1, human ROR1 on cells (HEK293T-hROR1, …)
Test: flow cytometry, PANC-1 cells
Remark: another data set of the same source
Description: as §1
Binding activity of the variants to PANC-1 cells were tested using the same method described in example 5.1. The results were shown in FIGS. 7-8 and Table 11 and Table 12.

Row | TOP | Binder
17 | 86600 | B14

Target: T2, Human ROR1-ECD-his (Acro Biosystems RO1-H522y) (human, UniProt Q01973 30-406)
T2 construct: extracellular domain; bought protein; also called hROR1-ECD-his; hu-ROR1-ECD-his
T2 sequence (Q01973 30-406): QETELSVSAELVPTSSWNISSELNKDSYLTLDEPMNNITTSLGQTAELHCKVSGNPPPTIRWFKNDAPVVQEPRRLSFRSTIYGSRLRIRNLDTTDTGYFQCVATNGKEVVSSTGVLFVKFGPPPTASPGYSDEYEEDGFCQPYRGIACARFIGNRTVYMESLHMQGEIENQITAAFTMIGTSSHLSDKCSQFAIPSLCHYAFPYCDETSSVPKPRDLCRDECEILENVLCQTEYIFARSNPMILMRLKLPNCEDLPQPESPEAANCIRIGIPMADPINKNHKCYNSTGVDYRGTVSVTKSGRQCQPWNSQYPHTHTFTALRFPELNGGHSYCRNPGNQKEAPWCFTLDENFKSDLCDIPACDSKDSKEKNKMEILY
Test: ELISA, coated hu-ROR1-ECD-his
Description: (§2) Binding of recombinant anti-ROR1 antibodies to hu-ROR1-ECD-his was tested by ELISA. In brief, 1 μg/mL hu-ROR1-ECD-his was added to the 96-well plate, 100 μL each well, incubated at 4° C. overnight, washing the plates with 1×PBST 3 times, 300 ul/well, blocking the plates with 2% BSA in 1×PBST, 200 ul/well at 37° C. for 1 hour, anti-ROR1 antibodies were serially diluted in staining buffer (PBS containing 2% BSA). Antibody solution was added to the plate and incubates at 37° C. for 1 hour, washing the plates with 1×PBST 3 times, 300 ul/well, adding secondary antibody 100 ul/well and incubate at 37° C. for 1 hour, washing the plates with 1×PBST 3 times, 300 ul/well and then add 100 ul/well TMB for about 5 min, stop the reaction by adding 100 ul/well 2M H₂SO₄, read the plates with Molecular device spectra max plus384 at 450 nm and 570 nm.

Row | EC50 | Binder
18 | 0.006 µg/mL | B1
19 | 0.002 µg/mL | B2
20 | 0.002 µg/mL | B3

Target: T1, human ROR1 on cells (HEK293T-hROR1, …)
Test: flow cytometry, HEK293T-hROR1 cells
Description: as §1

Row | EC50 | MAX(MFI) | Binder
21 | 0.191 µg/mL | 1.53e+07 MFI | B1
22 | 0.267 µg/mL | 1.49e+07 MFI | B2
23 | 0.158 µg/mL | 1.35e+07 MFI | B3

Target: T3, cynomolgus ROR1 on CHO-K1-cynoROR1 cells (cynomolgus monkey, UniProt A0A2K5WTX7 30-937)
T3 construct: whole, on cells
Test: flow cytometry, CHO-K1-cynoROR1 cells
Description: (§3) Binding of recombinant anti-ROR1 antibodies to human or cynomolgus ROR1-overexpressing cells was tested by flow cytometry. In this example, ROR1-expressing cell lines are HEK293T cell lines that had been transfected to express human ROR1 on the surface (HEK293T-hu ROR1, KYINNO BIOTECHNOLOGY CO., LTD, Catalog #KC-1018), CHO-K1 cell lines that had been transfected to express cynomolgus ROR1 (CHOK1-cyno ROR1), PANC-1 (ATCC, catalog: CRL-1469) or A549 cell lines (Shanghai Institute of Biochemistry and Cell Biology, Chinese Academy of Sciences).
as §1

Row | Max | Binder
24 | 34800 | B4
25 | 34500 | B5
26 | 14400 | B6
27 | 26600 | B7
28 | 34100 | B8
29 | 32700 | B9
30 | 32900 | B10
31 | 31100 | B11
32 | 24600 | B12
33 | 28000 | B13

Target: T3, cynomolgus ROR1 on CHO-K1-cynoROR1 cells
Test: flow cytometry, CHO-K1-cynoROR1 cells
Remark: another data set of the same source
Description: as §1

Row | EC50 | MAX(MFI) | Binder
34 | 1.43 µg/mL | 6.85e+06 MFI | B1
35 | 0.804 µg/mL | 1.1e+07 MFI | B2
36 | 0.474 µg/mL | 1.04e+07 MFI | B3

Target: T2, Human ROR1-ECD-his (Acro Biosystems …)
Test: BLI, ROR1-His on HIS1K sensor, antibody in solution
Description: In the example, binding kinetics of anti-ROR1 antibodies to soluble ROR1 protein were analyzed by using Bio-Layer Interferometry (BLI) analysis on Fortebio Octet Red384 instrument (Fortebio).
In BLI analysis, recombinant anti-ROR1 antibodies was serially diluted with 10× kinetics buffer (Fortebio). Human ROR1-His proteins were diluted to 20 nM. Then the diluted antibodies, ROR1 proteins and regeneration buffer (10 mM glycine HCl pH 1.5) were added to 96-well plates (Greiner). Rate constants for association and dissociation were measured using HIS1K sensor (Fortebio). The sensor surface was regenerated after each binding experiment with regeneration buffer. The traces were processed using Octet Data Analysis Software (version 11.0, Pall ForteBio, CA, USA).

Row | Kd | koff | kon | Binder
37 | 14.1 nM | 0.00173 s⁻¹ | 123000 M⁻¹ s⁻¹ | B1
38 | 6.83 nM | 0.00336 s⁻¹ | 492000 M⁻¹ s⁻¹ | B2
39 | 11.1 nM | 0.0031 s⁻¹ | 278000 M⁻¹ s⁻¹ | B3

Target: T4, hu-ROR2-ECD-his (Acrobiosystems RO2-H52E5) (human, UniProt Q01974 34-403)
T4 construct: extracellular domain; bought protein; also called Human ROR2 his-tagged protein; Human ROR2, His Tag
T4 sequence (Q01974 34-403): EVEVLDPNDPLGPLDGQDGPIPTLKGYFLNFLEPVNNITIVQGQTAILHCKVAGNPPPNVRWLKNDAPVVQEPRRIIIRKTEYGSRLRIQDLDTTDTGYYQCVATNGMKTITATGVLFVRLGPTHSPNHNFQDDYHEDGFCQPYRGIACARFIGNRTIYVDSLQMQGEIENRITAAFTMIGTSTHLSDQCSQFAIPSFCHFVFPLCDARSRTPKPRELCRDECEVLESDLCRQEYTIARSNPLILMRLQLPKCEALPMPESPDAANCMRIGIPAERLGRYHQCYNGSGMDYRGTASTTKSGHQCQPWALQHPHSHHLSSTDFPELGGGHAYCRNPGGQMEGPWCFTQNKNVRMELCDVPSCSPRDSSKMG
Test: ELISA, plate coated with hu-ROR2-his at 1 µg/mL
Description: as §2, with “1” for “Binding of recombinant anti-ROR1 antibodies to hu-ROR1-ECD-his was tested by ELISA. In brief, 1”, “hu-ROR2-ECD-his (Acrobiocystems, RO2-H52E5)” for “hu-ROR1-ECD-his”

Row | binding result | Binder
40 | no binding (tested: about 15 µg/ml) | B1
41 | no binding (tested: about 15 µg/ml) | B2
42 | no binding (tested: about 15 µg/ml) | B3

Target: T1, human ROR1 on cells (HEK293T-hROR1, …)
Test: flow cytometry on PANC-1 cells, MFI (APC-A Median)
Description: as §3, §1

Row | EC50 (read off the curve) | Binder
43 | ~2 nM | B4
44 | ~4 nM | B5
45 | ~2 nM | B8
46 | ~8 nM | B9
47 | ~2 nM | B10
48 | ~20 nM | B11

Target: T3, cynomolgus ROR1 on CHO-K1-cynoROR1 cells
Test: flow cytometry on CHOK1-cynoROR1 cells, MFI (APC-A Median) [top panel]
Description: as §3, §1

Row | EC50 (read off the curve) | Binder
49 | ~4 nM | B4
50 | ~7 nM | B5
51 | ~4 nM | B8
52 | ~10 nM | B9
53 | ~3 nM | B10
54 | ~20 nM | B11

— patent publication US20250257130A1 (NONA BIOSCIENCES SUZHOU, published 2025)
